Positions count from the first letter of the chain named. Numbers in names are those of the source.

B1: REGN10987 (Imdevimab) Fab wild type (Fab, V domains shown)
VH: QVQLVESGGGVVQPGRSLRLSCAASGFTFSNYAMYWVRQAPGKGLEWVAVISYDGSNKYYADSVKGRFTISRDNSKNTLYLQMNSLRTEDTAVYYCASGSDYGDYLLVYWGQGTLVTVSS
VL: QSALTQPASVSGSPGQSITISCTGTSSDVGGYNYVSWYQQHPGKAPKLMIYDVSKRPSGVSNRFSGSKSGNTASLTISGLQSEDEADYYCNSLTSISTWVFGGGTKLTVL
notes: Fab heavy chain of REGN10987; Fab light chain of REGN10987; Polycistronic gene, light chain upstream of heavy chain; also called REGN10987 wild type; REGN10987 Fab
B2: REGN10987 (S95K) Fab (Fab, V domains shown)
VH: B1 VH
VL: B1 VL with S95K
B3: REGN10987 (N31D) Fab (Fab, V domains shown)
VH: B1 VH with N31D
VL: B1 VL
B4: REGN10933 (Casirivimab) Fab wild type (Fab, V domains shown)
VH: QVQLVESGGGLVKPGGSLRLSCAASGFTFSDYYMSWIRQAPGKGLEWVSYITYSGSTIYYADSVKGRFTISRDNAKSSLYLQMNSLRAEDTAVYYCARDRGTTMVPFDYWGQGTLVTVSS
VL: DIQMTQSPSSLSASVGDRVTITCQASQDITNYLNWYQQKPGKAPKLLIYAASNLETGVPSRFSGSGSGTDFTFTISGLQPEDIATYYCQQYDNLPLTFGGGTKVEIK
notes: Fab heavy chain of REGN10933; Fab light chain of REGN10933; Polycistronic gene, light chain upstream of heavy chain; also called REGN10933 wild type; REGN10933 Fab
B5: REGN10933 (N93Q) Fab (Fab, V domains shown)
VH: B4 VH
VL: B4 VL with N93Q
B6: REGN10933 (T28E) Fab (Fab, V domains shown)
VH: B4 VH with T28E
VL: B4 VL
B7: REGN10933 (A75S) Fab (Fab, V domains shown)
VH: B4 VH with A75S
VL: B4 VL
B8: REGN10933 (M104N) Fab (Fab, V domains shown)
VH: B4 VH with M104N
VL: B4 VL

The first assay deals with T1, mtDsbC-SARS-CoV-2 RBD wild type fusion protein (SARS-CoV-2, wild type (Wuhan-Hu-1), UniProt P0DTC2, biotin (EZ-Link NHS-PEG4-Biotin)).
T1 construct: also called RBD SARS-CoV-2 (wild type); mtDsbC-RBD; not shown: mtDsbC solubility tag, N-terminal, kept
The assay can be described thus: BLI; biotinylated mtDsbC-RBD (20 µg/mL) immobilised on streptavidin (SA) biosensors, Fabs as analytes at three nanomolar concentrations; Octet RED384, 30 °C, 1000 rpm, 1 × PBS Kinetics Buffer; 1:1 interaction model, global fit. Conditions: both partners purified. On the technique in general: In BLI a coated tip is dipped into the sample, and binding shifts an interference pattern.
In the case of B1, binding was put at a Kd of 43.9 nM.
As to B2, the Kd (as a rule, the constant that tells how readily two partners part at equilibrium) amounted to 30.5 nM.
B3 gave a Kd of 17.9 nM.
Same read-out and setting: the same measure for B4: 2.84 nM; for B5: 2.76 nM.
On the same count and under the same terms, the same measure for B6: less than 0.001 nM.
The molecule B7 returned a dissociation constant (Kd) of 3.22 nM.
B8 yielded an equilibrium dissociation constant (Kd) of 143 nM.

For another assay, the target named is T2, mtDsbC-SARS-CoV-2 RBD Alpha variant (B.1.1.7) fusion protein (SARS-CoV-2, Alpha (B.1.1.7), RBD N501Y, N501Y, biotin (EZ-Link NHS-PEG4-Biotin)).
T2 construct: also called RBD SARS-CoV-2 (alpha variant); not shown: mtDsbC solubility tag, N-terminal, kept
The assay is described as above. Particulars: both partners purified.
The molecule B1 gave a dissociation constant (Kd) of 54.1 nM.
Turning to B2, the dissociation constant (Kd) is 22.8 nM.
The same measure, in the same setting: as for B3, the figure is 13.7 nM; as for B4, 3.12 nM.
The molecule B5 had a dissociation constant Kd of 3.42 nM. The Kd values of the last two molecules are within 1.5-fold of each other.
The same measure, in the same setting: as for B6, the figure is less than 0.001 nM; as for B7, 2.75 nM; as for B8, 119 nM.
